In patent publication US20230242623A1 (GEORGIA TECH RESEARCH, published 2023):

Target: T1, SARS-CoV-2 spike ectodomain protein (SARS-CoV-2, UniProt P0DTC2 14-1213)
T1 construct: extracellular domain
Assay: BLI, immobilized spike ectodomain; avidity reported as 1/Kads

B1: 3A7 (antibody, V domains shown)
VH: QVTLKESGPGILQPSQTLSLTCSFSGFSLSTSGMGVSWIRQPSGKGLEWLAHIYWDDDKRYNPSLKSRLTISKDTSSSQVFLKITSVDTVDTATYYCARRGPLITTDGTFDVWGAGTTVTVSS
VL: DIVMTQSRKFMSTSVGDRVSITCKASQDVGTSVAWYQQKPGQSPKLLIYWASTRHTGVPDRFTGSGSGTDFTLTINSVQSEDLADYFCQQYSSYPYTFGGGTKLEMK
notes: also called 3A7 clone
Kd: ~0.01 nM
